Results on six molecules are retold here after patent US20210401931A1, “METHODS AND MATERIALS FOR TREATING CANCER” (Mayo Foundation for Medical Education and Research, priority 2018, published 2021).

The test system of one assay is NFκB target genes. Put plainly: Expression of NFκB target genes in PC-3 cells (RNA-seq, RT-qPCR). In kind it is cell-based, human. The settings on record: PC-3 cells, IKK-16 5 μM or ACHP 20 μM, 24 hours. The protocol:
FIGS. 4A-G. RB globally regulates NFkB transcriptional program in cells. […] (F, G) PC-3 cell were treated with or without palbociclib (5 μM) for 24 hours or PC-3 cells were infected with lentivirus expressing control shRNA or RB-specific shRNA following puromycin selection after 48 hours infection. Cells were harvested for RT-qPCR (F) and ChIP-qPCR (G) analysis of p65 binding at the promotor of PD-L1, GADD45B, NR4A2, and CD83. All data were shown as mean values±SD (n=3). * P<0.05, ** P<0.01, ***P<0.001.
FIGS. 16A-K. Mutual exclusivity of PTEN and MAP3K7 gene deletion in human cancers and CDK4/6 inhibition-mediated blockage of MAP3K7 deficiency-induced death of PTEN-null cells. (A) Genetic alterations of MAP3K7 and PTEN genes in the TCGA prostate cancer dataset. (B) Genetic alterations of MAP3K7 and PTEN genes in lymphoid neoplasm diffuse large B-cell lymphoma, stomach adenocarcinoma, pancreatic cancer, liver cancer, bladder urothelial carcinoma, and lung adenocarcinoma. (C-E) PC-3 cells were infected with lentivirus expressing control or MAP3K7-specific shRNAs. 72 hours after infection, cells were harvested for western blotting (C), cell growth assay (D), and colony formation assay (E). All data were shown as mean values±SD (n=3). ns, not significant, * P<0.05 comparing to the shControl group. (F-H) LNCaP-RF prostate cancer cells were infected with lentivirus expressing control or MAP3K7-specific shRNAs. 72 hours after infection, cells were harvested for western blotting (F), cell growth assay (G), and colony formation assay (H). All data are shown as mean values±SD (n=3). ns, not significant, * P<0.05 comparing to the shControl group. (I-K) PC-3 cells were infected with lentivirus expressing control, MAP3K7 or CHD1-specific shRNAs. 72 hours after infection, cells were treated with DMSO or palbociclib (5 μM). […]
FIGS. 17A-I. Negative regulation of MAP3K7-IKK-NFκB and CHD1-NFκB signaling by RB. […] 72 hours after infection and puromycin selection, cells were injected s.c. into the right flank of NSG mice, and tumor growth was measured for 21 days. […]

Another assay addresses T1, p65 (Homo sapiens, UniProt Q04206).
T1 construct: endogenous in cells; host or cells: 293T
Put plainly: Co-IP of p65 by SFB-tagged RL peptide in 293T cells. To be noted: 48 hours after transfection. In kind it is binding. As for the experimental part: FIGS. 10A-G. (A) Schematic diagram depicting a set of RB-N recombinant protein constructs. Western blot analysis of p65 proteins in PC-3 cells whole cell lysate pulled down by GST or GST-RB-N recombinant proteins. Stars indicate expected molecular weight. (B) Western blot analysis of in vitro transcribed and translated p65 proteins pulled down by GST or GST-RB recombinant proteins. Stars indicate expected molecular weight. (C) Western blot analysis of WCL and co-IP samples in 293T cells 48 h after transfected with indicated constructs. (D) Schematic diagram depicting an evolutionally conserved R-linker region in the N-terminal of RB. FIG. 10D discloses SEQ ID NOS 265 and 271-274, respectively, in order of appearance. (E) Western blot analysis of WCL and co-IP samples in 293T cells 48 hours after transfected with indicated constructs. (F) PC-3 cells were transfected with indicated plasmids. Western blot analysis of HA-RB proteins in PC-3 whole cell lysate pulled down by GST or GST-p65 recombinant proteins. Stars indicate expected molecular weight. (G) Schematic diagram depicting fully positively charged RB-N allows otherwise negatively charged by S249/T252 phosphorylation to bind to negatively charged 166FSLMV170 motif (SEQ ID NO: 286) in EID1. FIG. 10G discloses SEQ ID NOS 265-266 and 275, respectively, in order of appearance. […]

The target in assay [1] is T2, retinoblastoma protein RB (endogenous) (human, UniProt P06400 2-928).
T2 construct: Endogenous protein of cell lysates, phosphorylation state as in the cells; also called RB1; endogenous RB
T2 sequence (looked up): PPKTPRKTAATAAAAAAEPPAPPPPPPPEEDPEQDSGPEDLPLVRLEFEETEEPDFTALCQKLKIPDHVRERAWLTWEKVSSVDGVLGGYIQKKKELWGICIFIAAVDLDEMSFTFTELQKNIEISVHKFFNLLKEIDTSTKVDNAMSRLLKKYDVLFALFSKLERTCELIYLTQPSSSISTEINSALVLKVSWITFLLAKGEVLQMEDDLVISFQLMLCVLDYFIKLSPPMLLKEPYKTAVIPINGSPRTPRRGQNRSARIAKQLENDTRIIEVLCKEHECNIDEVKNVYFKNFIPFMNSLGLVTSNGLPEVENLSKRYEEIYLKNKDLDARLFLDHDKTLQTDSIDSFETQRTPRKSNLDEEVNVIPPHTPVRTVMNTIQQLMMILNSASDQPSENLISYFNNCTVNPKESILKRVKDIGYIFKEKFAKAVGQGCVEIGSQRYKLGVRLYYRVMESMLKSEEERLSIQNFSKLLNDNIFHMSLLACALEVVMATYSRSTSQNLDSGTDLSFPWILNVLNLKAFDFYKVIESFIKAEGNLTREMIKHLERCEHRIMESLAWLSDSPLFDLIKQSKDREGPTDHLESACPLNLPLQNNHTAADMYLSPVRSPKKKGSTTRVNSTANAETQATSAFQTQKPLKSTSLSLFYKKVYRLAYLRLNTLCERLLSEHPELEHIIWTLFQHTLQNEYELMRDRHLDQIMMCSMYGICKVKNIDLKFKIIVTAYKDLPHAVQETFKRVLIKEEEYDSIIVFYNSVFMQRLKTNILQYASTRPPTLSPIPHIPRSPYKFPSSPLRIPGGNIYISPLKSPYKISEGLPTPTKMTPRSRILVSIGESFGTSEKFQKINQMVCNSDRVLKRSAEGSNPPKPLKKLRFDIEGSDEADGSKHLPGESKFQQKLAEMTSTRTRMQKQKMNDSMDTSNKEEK
Put plainly: co-IP of endogenous proteins in PC-3 cells, western blot (FIG. 2A). In general terms: Immunoblotting shows a protein as a band on a membrane.

The target of assay [2] is T3, p65 NFκB protein (human, UniProt Q04206 1-551).
T3 construct: The same entry is used for endogenous p65 and for in vitro translated p65; which one stood in the assay is told under assay; also called endogenous p65; in vitro transcribed and translated p65 (pCMV4 p65)
Put plainly: in vitro protein binding assay with in vitro transcribed and translated p65 (FIG. 10A).

Assay [3] addresses T3, p65 NFκB protein. The assay is described as follows: co-IP from 293T cells transfected with SFB-tagged constructs (FIG. 10C).

T3 sequence (Q04206 whole entry): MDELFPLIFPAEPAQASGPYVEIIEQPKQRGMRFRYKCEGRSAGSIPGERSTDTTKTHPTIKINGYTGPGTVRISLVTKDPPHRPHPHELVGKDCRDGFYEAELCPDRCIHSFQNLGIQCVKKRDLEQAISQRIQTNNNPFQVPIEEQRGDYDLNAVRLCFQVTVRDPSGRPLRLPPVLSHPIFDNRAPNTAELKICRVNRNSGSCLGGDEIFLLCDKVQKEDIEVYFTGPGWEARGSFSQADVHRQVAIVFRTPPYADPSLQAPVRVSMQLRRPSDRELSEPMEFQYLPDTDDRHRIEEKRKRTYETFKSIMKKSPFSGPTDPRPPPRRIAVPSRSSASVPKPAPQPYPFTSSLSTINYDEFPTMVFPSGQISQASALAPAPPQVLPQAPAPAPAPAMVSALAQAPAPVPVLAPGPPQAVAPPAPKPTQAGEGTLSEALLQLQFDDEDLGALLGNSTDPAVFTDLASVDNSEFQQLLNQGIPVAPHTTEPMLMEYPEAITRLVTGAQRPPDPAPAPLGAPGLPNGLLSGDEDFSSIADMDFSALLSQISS
T1 sequence (Q04206 whole entry): as above

As for `N#Cc1c(C2CCNCC2)cc(-c2c(O)cccc2OCC2CC2)nc1N` [ACHP], in the assay on NFκB target genes, the “NFκB target gene expression” value is listed as “decreased”. As for `O=C(c1ccc(Nc2nccc(-c3cc4ccccc4s3)n2)cc1)N1CCC(N2CCCC2)CC1` [IKK-16], in the assay with NFκB target genes, the “NFκB target gene expression” value was “decreased”. In the case of “RL-S249A/T252A: unphosphorylable (phosphorylation-resistant) mutant of the RL peptide (NGAPRAPRRGQNRSARIAKQL; left off: small tags and cut ends) [reference compound]”, the “immunoprecipitation of p65 by SFB-tagged RL peptide” value with p65 was “largely diminished”.

B1: p50 subunit of NFκB (other, human, UniProt P19838 1-433, looked up)
chain: MAEDDPYLGRPEQMFHLDPSLTHTIFNPEVFQPQMALPTDGPYLQILEQPKQRGFRFRYVCEGPSHGGLPGASSEKNKKSYPQVKICNYVGPAKVIVQLVTNGKNIHLHAHSLVGKHCEDGICTVTAGPKDMVVGFANLGILHVTKKKVFETLEARMTEACIRGYNPGLLVHPDLAYLQAEGGGDRQLGDREKELIRQAALQQTKEMDLSVVRLMFTAFLPDSTGSFTRRLEPVVSDAIYDSKAPNASNLKIVRMDRTAGCVTGGEEIYLLCDKVQKDDIQIRFYEEEENGGVWEGFGDFSPTDVHRQFAIVFKTPKYKDINITKPASVFVQLRRKSDLETSEPKPFLYYPEIKDKEEVQRKRQKLMPNFSDSFGGGSGAGAGGGGMFGSGGGGGGTGSTGPGYSFPHYGFPTYGGITFHPGTTKSNAGMKHG
Take B1: in assay [1], the binding result is listed as “no binding”.

B2: GST-RB-NΔ1 (N-terminal portion of RB-N, amino acids 1-266) (other, not shown: a dimerising Fc or GST; small tags and cut ends)
chain: MPPKTPRKTAATAAAAAAEPPAPPPPPPPEEDPEQDSGPEDLPLVRLEFEETEEPDFTALCQKLKIPDHVRERAWLTWEKVSSVDGVLGGYIQKKKELWGICIFIAAVDLDEMSFTFTELQKNIEISVHKFFNLLKEIDTSTKVDNAMSRLLKKYDVLFALFSKLERTCELIYLTQPSSSISTEINSALVLKVSWITFLLAKGEVLQMEDDLVISFQLMLCVLDYFIKLSPPMLLKEPYKTAVIPINGSPRTPRRGQNRSARIAKQ
Take B2: the binding result with p65 NFκB protein [2] is listed as “binds”.

B3: SFB-tagged RB-N (other, human, UniProt P06400 1-379, looked up, not shown: small tags and cut ends)
chain: MPPKTPRKTAATAAAAAAEPPAPPPPPPPEEDPEQDSGPEDLPLVRLEFEETEEPDFTALCQKLKIPDHVRERAWLTWEKVSSVDGVLGGYIQKKKELWGICIFIAAVDLDEMSFTFTELQKNIEISVHKFFNLLKEIDTSTKVDNAMSRLLKKYDVLFALFSKLERTCELIYLTQPSSSISTEINSALVLKVSWITFLLAKGEVLQMEDDLVISFQLMLCVLDYFIKLSPPMLLKEPYKTAVIPINGSPRTPRRGQNRSARIAKQLENDTRIIEVLCKEHECNIDEVKNVYFKNFIPFMNSLGLVTSNGLPEVENLSKRYEEIYLKNKDLDARLFLDHDKTLQTDSIDSFETQRTPRKSNLDEEVNVIPPHTPVRTVM
notes: Expressed in mammalian cells (293T, PANC-1, H1299, SK-Hep1)
For the molecule B3, the binding result with p65 NFκB protein [3] is given as “binds”.
